Laboratory results as given in the FLAb antibody collection (doi:10.1101/2023.12.08.570889).
Residue numbers refer to the chain shown, from its start.

B1: unnamed (protein)
chain 1: QMQLVESGGGVVQPGRSLRLSCAASGFTFRTYGMHWVRQAPGKGLEWVAVIWYDGSNKHYADSVKGRFTITRDNSKNTLNLQMNSLRAEDTAVYYCARAPRYYDYLEAFDVWGQGTMVTVSS
chain 2: SYVLTQPPSVSVAPGQTARITCGGNNLGSKSVHWYQQKPGQAPVLVVYDDSDRPSWIPERFSGSNSGNTATLTISRGEAGDEADYYCQVWDSSSDHVVFGGGTKLTVL
B2: unnamed (protein)
chain 1: B1 chain 1 with D104E, Y105A, L106Y
chain 2: B1 chain 2
B3: unnamed (protein)
chain 1: B1 chain 1 with Y103D, D104E, Y105T, L106W
chain 2: B1 chain 2
B4: unnamed (protein)
chain 1: B1 chain 1 with D104E
chain 2: B1 chain 2
B5: unnamed (protein)
chain 1: B1 chain 1 with Y103D, D104E, Y105E, L106Y
chain 2: B1 chain 2
B6: unnamed (protein)
chain 1: B1 chain 1 with Y103D, D104W, L106Y
chain 2: B1 chain 2
B7: unnamed (protein)
chain 1: B1 chain 1 with L106Y
chain 2: B1 chain 2
B8: unnamed (protein)
chain 1: B1 chain 1 with Y103D, L106Y, E107D
chain 2: B1 chain 2
B9: unnamed (protein)
chain 1: B1 chain 1 with Y103D, D104W, L106V
chain 2: B1 chain 2
B10: unnamed (protein)
chain 1: B1 chain 1 with Y103D, D104Y, L106W
chain 2: B1 chain 2
B11: unnamed (protein)
chain 1: B1 chain 1 with Y105A, L106Y
chain 2: B1 chain 2
B12: unnamed (protein)
chain 1: B1 chain 1 with A99S, Y103D, L106Y
chain 2: B1 chain 2
B13: unnamed (protein)
chain 1: B1 chain 1 with Y103D, D104E, Y105H, L106W
chain 2: B1 chain 2
B14: unnamed (protein)
chain 1: B1 chain 1 with A99S, Y103D, L106W
chain 2: B1 chain 2
B15: unnamed (protein)
chain 1: B1 chain 1 with Y103D, D104E
chain 2: B1 chain 2
B16: unnamed (protein)
chain 1: B1 chain 1 with Y103D, Y105L, L106W
chain 2: B1 chain 2
B17: unnamed (protein)
chain 1: B1 chain 1 with Y103D, L106V
chain 2: B1 chain 2
B18: unnamed (protein)
chain 1: B1 chain 1 with D104Y, L106Y
chain 2: B1 chain 2
B19: unnamed (protein)
chain 1: B1 chain 1 with R30S, G33A, Y103D, L106W
chain 2: B1 chain 2

The binders below were run against TSLP, Q969D9 (assay: Kd (SPR)).
For B1, the Kd was 0.0226 µM.
In the case of B2, the Kd is reported as 0.031 µM.
B3 gave a Kd of 0.141 µM.
In the case of B4, the Kd is reported as 0.0319 µM.
With B5 the Kd was 0.0789 µM.
For B6, the Kd was 0.0482 µM.
Work on B7 yielded a Kd of 0.0332 µM.
B8 gave a Kd of 0.163 µM.
Binder B9 has a Kd of 0.0542 µM.
In the case of B10, the Kd is reported as 0.175 µM.
B11 was tested, and the Kd was 0.0335 µM.
For B12, the Kd was 0.186 µM.
With B13 the Kd was 0.17 µM.
B14 gave a Kd of 0.197 µM.
Binder B15 has a Kd of 0.129 µM.
For B16, the Kd was 0.0611 µM.
B17 showed a Kd of 0.0446 µM.
B18 was tested, and the Kd was 0.0523 µM.
Binder B19 has a Kd of 0.718 µM.
